In patent US6534267 (dated 2003):

Target: the molecule itself
Assay: gel filtration of purified native Smac (self-association)

B1: 25-kDa Smac (second mitochondria-derived activator of caspase), native mature protein from HeLa cells (other)
chain: AVPIAQKSEPHSLSSEALMRRAVSLVTDSTSTFLSQTTYALIEAITEYTKAVYTLTSLYRQYTSLLGKMNSEEEDEVWQVIIGARAEMTSKHQEYLKLETTWMTAVGLSEMAAEAAYQTGADQASITARNHIQLVKLQVEEVHQLSRKAETKLAEAQIEELRQKTQEEGEERAESEQEAYLRED
notes: The HeLa protein is also about 25 kDa; Gel filtration points to a homotetramer; also called 25-kDa protein; native Smac
- binding result: binds
